B1: C98C7 Fab (Fab, V domains shown)
VH: EVQLVESGGGLVQPGGSLRLSCAASGITVSSNYMSWVRQAPGKGLEWVSVIYSGGSTFYADSVKGRFTISRDNSKNTLYLQMSSLRAEDTAVYYCARDLVVFGMDVWGQGTTVTVSS
VL: EIVLTQSPGTLSLSPGETATLSCRASQSVGSSYLTWYQQKPGQAPRLLIYGASSRATGIPDRFSGSGSGTDFTLTISRLEPEDFAVYYCQHYGSSPTFGQGTKVEIK
B2: G32Q4 Fab (Fab, V domains shown)
VH: QVQLVESGGGVVQPGRSLRLSCAASGFTFSRYAMQWVRQAPGKGLEWVAVISYDGNNRYYADSVKGRFTISRDNSKNTLYLQMNSLRAEDTAVYYCARGPPGYYDSSGYYQTPEYFQHWGQGTLVTVSS
VL: QSVLTQPPSVSGAPGQRVTISCTGSSSNIGVGYDVHWYQQFPGTVPKLLIYGNSNRPSGVPDRFSGSKSGTSASLAITGLQAEDEADYYCQSYDSSLSGVVFGGGTKLTVL
B3: G32Q4 Fab (Fab, V domains shown)
VH: B2 VH
VL: B2 VL
B4: C98C7 Fab (Fab, V domains shown)
VH: B1 VH
VL: B1 VL

Columns and labels:
Settings in all cases: both partners purified
[1] = target: T1, SARS-CoV-2 spike receptor-binding domain (RBD), Delta variant (SARS-CoV-2, Delta variant (B.1.617.2), L452R | T478K); assay: BLI
T1 construct: not shown: His tag, C-terminal, kept

[2] = target: T2, SARS-CoV-2 spike receptor-binding domain (RBD), Gamma variant (SARS-CoV-2, Gamma variant (P.1), E484K | N501Y); assay: BLI
T2 construct: not shown: His tag, C-terminal, kept

[3] = target: T3, SARS-CoV-2 spike receptor-binding domain (RBD), Alpha variant (SARS-CoV-2, Alpha variant (B.1.1.7), N501Y); assay: BLI
T3 construct: not shown: His tag, C-terminal, kept

[4] = target: SARS-CoV-2 spike hexapro, prefusion stabilized spike ectodomain trimer (SARS-CoV-2, Wuhan, UniProt P0DTC2, stabilised); assay: cryo-EM structure
[5] = target: T4, SARS-CoV-2 spike receptor-binding domain (RBD), Alpha variant (SARS-CoV-2, Alpha variant (B.1.1.7), N501Y); assay: BLI; remark: listed apart in the source
T4 construct: not shown: His tag, C-terminal, kept

[6] = target: T5, SARS-CoV-2 spike receptor-binding domain (RBD), Delta variant (SARS-CoV-2, Delta variant (B.1.617.2), L452R | T478K); assay: BLI; remark: listed apart in the source
T5 construct: not shown: His tag, C-terminal, kept

[7] = target: T6, SARS-CoV-2 spike receptor-binding domain (RBD), Wuhan isolate (SARS-CoV-2, Wuhan, UniProt P0DTC2); assay: BLI
T6 construct: not shown: His tag, C-terminal, kept

[8] = target: T7, SARS-CoV-2 spike receptor-binding domain (RBD), Gamma variant (SARS-CoV-2, Gamma (P.1), E484K | N501Y); assay: BLI
T7 construct: not shown: His tag, C-terminal, kept

Row | Binder | Kd [1] [nM] | koff [1] [s⁻¹] | kon [1] [M⁻¹ s⁻¹] | koff [2] [s⁻¹] | kon [2] [M⁻¹ s⁻¹] | koff [3] [s⁻¹] | kon [3] [M⁻¹ s⁻¹] | binding result [4] | Kd [5] [nM] | Kd [6] [nM] | Kd [7] [nM] | Kd [8] [nM]
1 | B1 | 3.5 | 0.00099 | 280000 |  |  |  |  |  |  |  |  | 
2 | B2 |  | 0.0062 | 1.2e+06 | 0.0025 | 2e+06 | 0.007 | 930000 |  |  |  |  | 
3 | B3 |  |  |  |  |  |  |  | binds | 75 | 53 | 57 | 13
4 | B4 |  |  |  |  |  |  |  | binds | 6 | 3 | 3 | 1

Source: publication PMC9097876 (Science Immunology, 2022)
